Publication PMC5960625 (Biochemical pharmacology, 2018)

T1: constitutive androstane receptor (hCAR1) (Homo sapiens, UniProt Q14994)
T1 sequence (Q14994 109-352 limits assumed): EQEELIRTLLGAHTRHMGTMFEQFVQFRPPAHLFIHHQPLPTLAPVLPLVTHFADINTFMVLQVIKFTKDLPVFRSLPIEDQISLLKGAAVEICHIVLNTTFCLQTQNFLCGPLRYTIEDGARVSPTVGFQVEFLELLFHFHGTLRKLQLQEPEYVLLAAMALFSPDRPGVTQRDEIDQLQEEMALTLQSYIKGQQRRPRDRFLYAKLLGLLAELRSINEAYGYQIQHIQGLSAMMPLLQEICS

T2: human CAR ligand-binding domain (hCAR1-LBD), purified (human)
T2 chain: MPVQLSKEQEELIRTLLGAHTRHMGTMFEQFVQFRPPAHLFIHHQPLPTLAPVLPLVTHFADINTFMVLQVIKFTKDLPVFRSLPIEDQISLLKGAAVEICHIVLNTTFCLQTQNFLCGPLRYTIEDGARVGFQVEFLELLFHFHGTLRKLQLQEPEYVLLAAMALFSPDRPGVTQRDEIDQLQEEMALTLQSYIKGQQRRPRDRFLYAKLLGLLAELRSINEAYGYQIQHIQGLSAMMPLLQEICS


Legend:
[1] = target: T1, constitutive androstane receptor (hCAR1); experiment: SPR; type: binding
[2] = target: GAL4DBD-NCoR fusion (nuclear receptor co-repressor); experiment: two-hybrid
[3] = target: GAL4DBD-SMRT fusion (silencing mediator for retinoid or thyroid hormone receptors); experiment: two-hybrid
[4] = target: T2, human CAR ligand-binding domain …; experiment: HDX-MS

| Kd [1] [µM] | loss of interaction [2] [%] | loss of interaction [3] [%] | binding result [4] | Molecule |
| --- | --- | --- | --- | --- |
| ~548 |  |  |  | CCOC(=O)Nc1ccc2c(c1)N(C(=O)CN(CC)CC)c1ccccc1CC2 [CINPA1] |
|  | 75 | 50 |  | VP16AD-hCAR1 F217A (full length) (receptor) |
|  | 75 | 50 |  | VP16AD-hCAR1 Y224A (full length) (receptor) |
|  |  |  | binds | ASNLGLEDIIRKALMGSFD [NCoR1-3 cofactor peptide] |
